In test [1] the target is T1, Ssa1 (purified) (S. cerevisiae (budding yeast), UniProt P10591 1-642). Nature of the test: cell-based or functional assay.
In test [2] the target is T1, Ssa1 (purified). Nature of the test: BLI; biotinylated Ydj1 wild-type or mutant (5 μg/ml, equivalent loading) on streptavidin biosensors, Ssa1 (1 μM) in solution; Octet R4, 23°C; 25 mM Hepes pH 7.5, 50 mM KCl, 2 mM DTT, 5 mM MgCl2, 0.5 mM ATP, 0.02% Tween-20; non-specific binding subtracted. The conditions noted are these: both partners purified.

Numbering of substitutions follows the chain as printed.

T1 sequence (P10591 whole entry): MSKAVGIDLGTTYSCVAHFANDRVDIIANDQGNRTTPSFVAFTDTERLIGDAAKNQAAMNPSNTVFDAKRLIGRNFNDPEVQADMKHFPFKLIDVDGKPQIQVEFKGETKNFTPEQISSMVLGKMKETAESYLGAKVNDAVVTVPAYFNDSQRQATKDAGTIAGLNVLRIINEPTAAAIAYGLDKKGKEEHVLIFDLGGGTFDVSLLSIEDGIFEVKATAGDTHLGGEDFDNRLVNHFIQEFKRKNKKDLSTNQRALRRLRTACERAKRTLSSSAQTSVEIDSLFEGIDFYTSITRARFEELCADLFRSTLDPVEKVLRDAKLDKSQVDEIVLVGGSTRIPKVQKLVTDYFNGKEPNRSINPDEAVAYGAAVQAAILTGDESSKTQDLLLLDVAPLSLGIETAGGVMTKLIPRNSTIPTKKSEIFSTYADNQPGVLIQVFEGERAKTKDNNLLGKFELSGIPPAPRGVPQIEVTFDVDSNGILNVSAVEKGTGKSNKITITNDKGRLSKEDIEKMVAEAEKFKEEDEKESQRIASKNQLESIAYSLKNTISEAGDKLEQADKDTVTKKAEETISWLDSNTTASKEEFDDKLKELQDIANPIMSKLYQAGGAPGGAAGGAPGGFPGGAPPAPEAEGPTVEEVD

B1: His-tagged Ydj1 6KR (natural protein, S. cerevisiae (budding yeast), UniProt P25491 1-409, looked up)
chain: MVKETKFYDILGVPVTATDVEIRRAYRKCALRYHPDRNPSEEAAERFREASAAYEILSDPEKRDIYDQFGEDGLSGAGGAGGFPGGGFGFGDDIFSQFFGAGGAQRPRGPQRGKDIKHEISASLEELYKGRTAKLALNKQILCKECEGRGGKKGAVKKCTSCNGQGIKFVTRQMGPMIQRFQTECDVCHGTGDIIDPKDRCKSCNGKKVENERKILEVHVEPGMKDGQRIVFKGEADQAPDVIPGDVVFIVSERPHKSFKRDGDDLVYEAEIDLLTAIAGGEFALEHVSGDWLKVGIVPGEVIAPGMRKVIEGKGMPIPKYGGYGNLIIKFTIKFPENHFTSEENLKKLEEILPPRIVPAIPKKATVDECVLADFDPAKYNRTRASRGGANYDSDEEEQGGEGVQCASQ
modifications: biotin (labelled with a 1.5-fold excess of NHS-PEG4-Biotin, for BLI)
In the case of B1, in the test with Ssa1 (purified) [1], the “reactivation of chemically denatured luciferase (3 μM Ssa1, 0.3 μM Ydj1), against wild-type” value was around 2 fold.

B2: His-tagged Ydj1 K37R (natural protein, S. cerevisiae (budding yeast), UniProt P25491 1-409, looked up)
chain: B1 chain with R23K, R24K, R32K, R46K, R48K
modifications: biotin (labelled with a 1.5-fold excess of NHS-PEG4-Biotin, for BLI)
For B2, the “reactivation of chemically denatured luciferase (3 μM Ssa1, 0.3 μM Ydj1), against wild-type” value in the test with Ssa1 (purified) [1] was around 2 fold.

B3: His-tagged Ydj1 wild-type (natural protein, S. cerevisiae (budding yeast), UniProt P25491 1-409, looked up)
chain: B1 chain with R23K, R24K, R32K, R37K, R46K, R48K
modifications: biotin (labelled with a 1.5-fold excess of NHS-PEG4-Biotin, for BLI)
notes: Ydj1, yeast Hsp40; YDJ1 gene amplified from yeast genomic DNA, in pRSETA; Methods: 6xHIS-TEV-Ydj1 fusion; A TEV site lies between tag and Ydj1; A fragment lacking the J-domain co-purifies; also called HIS-Ydj1; Ydj1-biotin; source: E. coli Rosetta (DE3), purified (Ni-sepharose, Superdex 200); not shown: His6, N-terminal, kept
B3: in the test with Ssa1 (purified) [2], the binding result was “binds”.

B4: His-tagged Ydj1 K23Q (natural protein, S. cerevisiae (budding yeast), UniProt P25491 1-409, looked up)
chain: B1 chain with R23Q, R24K, R32K, R37K, R46K, R48K
modifications: biotin (labelled with a 1.5-fold excess of NHS-PEG4-Biotin, for BLI)
notes: Ydj1, yeast Hsp40; Tag end: see m28; source: E. coli Rosetta (DE3), purified (Ni-sepharose, Superdex 200); not shown: His6, N-terminal, kept
As to B4, the binding result with Ssa1 (purified) [2] is “binds”.

B5: His-tagged Ydj1 K23R (natural protein, S. cerevisiae (budding yeast), UniProt P25491 1-409, looked up)
chain: B1 chain with R24K, R32K, R37K, R46K, R48K
modifications: biotin (labelled with a 1.5-fold excess of NHS-PEG4-Biotin, for BLI)
notes: as for B4
In the case of B5, the binding result in the test with Ssa1 (purified) [2] is on record as “binds”.

The values are drawn from paper PMC11658694, “Acetylation of the yeast Hsp40 chaperone protein Ydj1 fine-tunes proteostasis and translational fidelity” (PLOS Genetics, 2024).
